Experimental data taken from publication PMC11499264, “RNA m5C oxidation by TET2 regulates chromatin state and leukaemogenesis”.

Target: T1, MBD6 MBD domain-MBP-His (Homo sapiens, UniProt Q96DN6 1-100)
T1 sequence: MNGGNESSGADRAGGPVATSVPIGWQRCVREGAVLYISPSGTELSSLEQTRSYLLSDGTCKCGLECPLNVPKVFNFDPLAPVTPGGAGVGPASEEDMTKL
Experiment: EMSA; 0-100 uM protein; preferred over C and hm5C probes; 100 nM FAM probe, 20 mM HEPES pH 7.5, 40 mM KCl, 10 mM MgCl2, 0.1% Triton X-100, 10% glycerol, 1x RNaseOUT, on ice 30 min; 10% TBE gel, 0.5x TBE, 4 C
Settings: protein: recombinant; tags: C-terminal MBP-6xHis; label: 5' 6-FAM; single strand

B1: p1-m5C (ss) (ssDNA)
DNA: TATGACCTGCGGTATGACCTGCGGTATGACCTGCGG
modifications: 5-methyl-dC at positions 7, 19, 31
Question: Does B1 bind?
Answer: binds
